T1: (ActRIIB)2-Fc (UniProt Q13705-1 19-137)
T1 sequence: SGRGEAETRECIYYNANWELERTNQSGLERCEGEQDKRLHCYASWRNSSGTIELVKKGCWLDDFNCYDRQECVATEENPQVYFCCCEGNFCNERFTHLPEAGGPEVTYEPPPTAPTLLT

T2: ActRIIB-Alk4-Fc (human, UniProt Q13705;P36896)
T2 sequence 1: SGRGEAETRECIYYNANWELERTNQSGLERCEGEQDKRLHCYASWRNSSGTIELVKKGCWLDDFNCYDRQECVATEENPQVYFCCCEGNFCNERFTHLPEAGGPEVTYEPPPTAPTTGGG
T2 sequence 2: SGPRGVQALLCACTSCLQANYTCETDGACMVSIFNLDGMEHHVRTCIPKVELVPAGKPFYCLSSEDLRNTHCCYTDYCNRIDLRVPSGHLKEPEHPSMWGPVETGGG

T3: ActRIIB-Fc (UniProt Q13705 19-137)
T3 sequence: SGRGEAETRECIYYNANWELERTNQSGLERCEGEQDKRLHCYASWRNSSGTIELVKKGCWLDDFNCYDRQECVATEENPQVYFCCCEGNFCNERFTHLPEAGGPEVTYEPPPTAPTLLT


Experiments:
crystal structure = molecular target: the molecule itself; experiment: crystal structure
(ActRIIB)2-Fc = molecular target: T1, (ActRIIB)2-Fc; experiment: SPR
ActRIIB-Alk4-Fc = molecular target: T2, ActRIIB-Alk4-Fc; experiment: SPR
ActRIIB-Fc = molecular target: T3, ActRIIB-Fc; experiment: SPR

Kd ((ActRIIB)2-Fc) [nM]	Kd (ActRIIB-Alk4-Fc) [nM]	Kd (ActRIIB-Fc) [nM]	Binder	binding result (crystal structure)
0.00191	0.00424	0.0147	GDF11 mature (ligand) NLGLDCDEHSSESRCCRYPLTVDFEAFGWDWIIAPKRYKANYCSGQCEYMFMQKYPHTHLVQQANPRGSAGPCCTPTKMSPINMLYFNDKQQIIYGKIPGMVVDRCGCS	binds
0.0125	0.0304	0.108	Activin A mature (ligand) GLECDGKVNICCKKQFFVSFKDIGWNDWIIAPSGYHANYCEGECPSHIAGTSGSSLSFHSTVINHYRMRGHSPFANLKSCCVPTKLRPMSMLYYDDGQNIIKKDIQNMIVEECGCS	binds

From publication PMC8718839 (iScience, 2021)
